In article PMC9482650, “Quantitative fragmentomics allow affinity mapping of interactomes” (Nature Communications, 2022):

T1: NHERF3_3, Q5T2W1
T1 sequence (Q5T2W1 238-333, limits assumed, looked up): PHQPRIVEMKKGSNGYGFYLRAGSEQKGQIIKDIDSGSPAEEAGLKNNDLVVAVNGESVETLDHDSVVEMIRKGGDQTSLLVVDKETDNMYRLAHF

T2: NHERF3_1, Q5T2W1
T2 sequence (Q5T2W1 4-100, limits assumed, looked up): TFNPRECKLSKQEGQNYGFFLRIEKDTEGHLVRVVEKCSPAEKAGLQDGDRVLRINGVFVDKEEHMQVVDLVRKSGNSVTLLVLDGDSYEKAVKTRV

T3: SNTG2, Q9NY99
T3 sequence (Q9NY99 68-166, limits assumed, looked up): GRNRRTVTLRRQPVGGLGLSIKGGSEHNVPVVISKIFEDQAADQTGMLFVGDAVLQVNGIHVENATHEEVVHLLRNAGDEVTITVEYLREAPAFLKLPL

T4: MPP6, Q9NZW5
T4 sequence (Q9NZW5 125-219, limits assumed, looked up): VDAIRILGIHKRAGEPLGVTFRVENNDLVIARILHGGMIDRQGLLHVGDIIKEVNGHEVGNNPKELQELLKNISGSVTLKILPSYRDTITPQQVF

T5: SNTG1, Q9NSN8
T5 sequence (Q9NSN8 52-150, limits assumed, looked up): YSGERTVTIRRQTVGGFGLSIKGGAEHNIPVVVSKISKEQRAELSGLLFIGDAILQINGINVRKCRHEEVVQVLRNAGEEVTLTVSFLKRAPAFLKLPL

T6: APBA1_2, Q02410
T6 sequence (Q02410 742-832, limits assumed, looked up): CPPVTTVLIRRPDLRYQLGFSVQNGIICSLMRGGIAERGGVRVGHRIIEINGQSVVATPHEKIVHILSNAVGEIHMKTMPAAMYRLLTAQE

T7: CARD11, Q9BXL7
T7 sequence (Q9BXL7 662-765, limits assumed, looked up): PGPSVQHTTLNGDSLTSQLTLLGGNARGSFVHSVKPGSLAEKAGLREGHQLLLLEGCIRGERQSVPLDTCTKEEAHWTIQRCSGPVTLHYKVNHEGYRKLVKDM

T8: LRRC7, Q96NW7
T8 sequence (Q96NW7 1440-1537, limits assumed, looked up): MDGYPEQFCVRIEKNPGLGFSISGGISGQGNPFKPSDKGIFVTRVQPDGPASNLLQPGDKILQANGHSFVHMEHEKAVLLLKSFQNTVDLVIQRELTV

T9: PARD3B_1, Q8TEW8
T9 sequence (Q8TEW8 196-299, limits assumed, looked up): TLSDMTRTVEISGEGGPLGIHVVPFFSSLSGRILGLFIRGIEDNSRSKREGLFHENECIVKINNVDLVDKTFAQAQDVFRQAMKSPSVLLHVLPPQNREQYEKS


The binders below were run against DLG2_2, Q15700 (assay: holdup assay). Details: plain residues with an end cap or a label only (N-terminal biotin on a linker: ado-ado).
DLG2_2, Q15700, sequence (Q15700 189-283): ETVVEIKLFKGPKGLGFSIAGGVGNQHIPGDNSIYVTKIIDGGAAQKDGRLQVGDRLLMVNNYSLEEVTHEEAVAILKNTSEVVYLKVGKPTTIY
Design: key: below the threshold = too weak to quantify, mostly under pKd 3.1 to 4
For KAEEKPPSKV [SCN4B, Q8IWT1], the pKd was “below the threshold”.
For QKNKDREYYV [NRXN3, Q9HDB5], the pKd was “below the threshold”.

Each binder was assayed against T1, NHERF3_3, Q5T2W1 (assay: holdup assay). Details: plain residues with an end cap or a label only (N-terminal biotin on a linker: ado-ado).
Design: key: below the threshold = too weak to quantify, mostly under pKd 3.1 to 4
For KAEEKPPSKV [SCN4B, Q8IWT1], the pKd was “below the threshold”.
With QKNKDREYYV [NRXN3, Q9HDB5] the pKd was “below the threshold”.

Each binder was assayed against T2, NHERF3_1, Q5T2W1 (assay: holdup assay). Details: plain residues with an end cap or a label only (N-terminal biotin on a linker: ado-ado).
Design: key: below the threshold = too weak to quantify, mostly under pKd 3.1 to 4
With KAEEKPPSKV [SCN4B, Q8IWT1] the pKd was “below the threshold”.
Binder QKNKDREYYV [NRXN3, Q9HDB5] has a pKd of 4.61.

What follows are binders tested against PTPN3, P26045 (assay: holdup assay). Details: plain residues with an end cap or a label only (N-terminal biotin on a linker: ado-ado).
PTPN3, P26045, sequence (P26045 505-587): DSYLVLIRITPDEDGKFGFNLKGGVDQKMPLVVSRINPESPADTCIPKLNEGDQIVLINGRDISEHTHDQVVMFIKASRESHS
Design: key: below the threshold = too weak to quantify, mostly under pKd 3.1 to 4
With KAEEKPPSKV [SCN4B, Q8IWT1] the pKd was “below the threshold”.
For QKNKDREYYV [NRXN3, Q9HDB5], the pKd was 4.37.

These binders were tested against T3, SNTG2, Q9NY99 (assay: holdup assay). Details: plain residues with an end cap or a label only (N-terminal biotin on a linker: ado-ado).
Design: key: below the threshold = too weak to quantify, mostly under pKd 3.1 to 4
With KAEEKPPSKV [SCN4B, Q8IWT1] the pKd was “below the threshold”.
Binder QKNKDREYYV [NRXN3, Q9HDB5] has a pKd of 3.5.

Each binder was assayed against SCRIB_1, Q14160 (assay: holdup assay). Details: plain residues with an end cap or a label only (N-terminal biotin on a linker: ado-ado).
SCRIB_1, Q14160, sequence (Q14160 718-814): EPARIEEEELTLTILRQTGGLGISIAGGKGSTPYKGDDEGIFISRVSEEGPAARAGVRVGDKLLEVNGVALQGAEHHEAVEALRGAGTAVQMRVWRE
Design: key: below the threshold = too weak to quantify, mostly under pKd 3.1 to 4
With KAEEKPPSKV [SCN4B, Q8IWT1] the pKd was “below the threshold”.
For QKNKDREYYV [NRXN3, Q9HDB5], the pKd was “below the threshold”.

Each binder was assayed against LDB3, O75112 (assay: holdup assay). Details: plain residues with an end cap or a label only (N-terminal biotin on a linker: ado-ado).
LDB3, O75112, sequence (O75112 1-94): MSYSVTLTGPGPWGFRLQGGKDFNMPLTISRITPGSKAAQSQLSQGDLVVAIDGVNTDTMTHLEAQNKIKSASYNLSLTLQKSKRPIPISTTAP
Design: key: below the threshold = too weak to quantify, mostly under pKd 3.1 to 4
In the case of KAEEKPPSKV [SCN4B, Q8IWT1], the pKd is reported as “below the threshold”.
In the case of QKNKDREYYV [NRXN3, Q9HDB5], the pKd is reported as “below the threshold”.

Each binder was assayed against AHNAK1, Q09666 (assay: holdup assay). Details: plain residues with an end cap or a label only (N-terminal biotin on a linker: ado-ado).
AHNAK1, Q09666, sequence (Q09666 4-100): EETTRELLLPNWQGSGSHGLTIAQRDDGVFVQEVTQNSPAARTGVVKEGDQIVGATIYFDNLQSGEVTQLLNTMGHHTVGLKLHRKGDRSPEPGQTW
Design: key: below the threshold = too weak to quantify, mostly under pKd 3.1 to 4
For KAEEKPPSKV [SCN4B, Q8IWT1], the pKd was “below the threshold”.
QKNKDREYYV [NRXN3, Q9HDB5] was tested, and the pKd was “below the threshold”.

The binders below were run against IL16_4, Q14005 (assay: holdup assay). Details: plain residues with an end cap or a label only (N-terminal biotin on a linker: ado-ado).
IL16_4, Q14005, sequence (Q14005 1229-1329): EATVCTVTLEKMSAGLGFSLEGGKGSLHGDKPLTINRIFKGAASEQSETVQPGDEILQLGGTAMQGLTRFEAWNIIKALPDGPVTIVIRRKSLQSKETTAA
Design: key: below the threshold = too weak to quantify, mostly under pKd 3.1 to 4
In the case of KAEEKPPSKV [SCN4B, Q8IWT1], the pKd is reported as 3.65.
In the case of QKNKDREYYV [NRXN3, Q9HDB5], the pKd is reported as “below the threshold”.

These binders were tested against MAGI2_3, Q86UL8 (assay: holdup assay). Details: plain residues with an end cap or a label only (N-terminal biotin on a linker: ado-ado).
MAGI2_3, Q86UL8, sequence (Q86UL8 600-682): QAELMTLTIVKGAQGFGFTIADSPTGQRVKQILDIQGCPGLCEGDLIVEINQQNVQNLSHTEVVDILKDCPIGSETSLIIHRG
Design: key: below the threshold = too weak to quantify, mostly under pKd 3.1 to 4
In the case of KAEEKPPSKV [SCN4B, Q8IWT1], the pKd is reported as 3.48.
QKNKDREYYV [NRXN3, Q9HDB5] was tested, and the pKd was “below the threshold”.

Each binder was assayed against T4, MPP6, Q9NZW5 (assay: holdup assay). Details: plain residues with an end cap or a label only (N-terminal biotin on a linker: ado-ado).
Design: key: below the threshold = too weak to quantify, mostly under pKd 3.1 to 4
KAEEKPPSKV [SCN4B, Q8IWT1] was tested, and the pKd was “below the threshold”.
Binder QKNKDREYYV [NRXN3, Q9HDB5] has a pKd of 4.25.

What follows are binders tested against T5, SNTG1, Q9NSN8 (assay: holdup assay). Details: plain residues with an end cap or a label only (N-terminal biotin on a linker: ado-ado).
Design: key: below the threshold = too weak to quantify, mostly under pKd 3.1 to 4
With KAEEKPPSKV [SCN4B, Q8IWT1] the pKd was “below the threshold”.
Binder QKNKDREYYV [NRXN3, Q9HDB5] has a pKd of 3.58.

What follows are binders tested against Inadl_3, Q8NI35 (assay: holdup assay). Details: plain residues with an end cap or a label only (N-terminal biotin on a linker: ado-ado).
Inadl_3, Q8NI35, sequence (Q8NI35 359-469): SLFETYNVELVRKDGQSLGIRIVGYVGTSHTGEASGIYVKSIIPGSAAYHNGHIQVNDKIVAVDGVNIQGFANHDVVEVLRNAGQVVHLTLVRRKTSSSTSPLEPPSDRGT
Design: key: below the threshold = too weak to quantify, mostly under pKd 3.1 to 4
KAEEKPPSKV [SCN4B, Q8IWT1] was tested, and the pKd was “below the threshold”.
With QKNKDREYYV [NRXN3, Q9HDB5] the pKd was 4.14.

What follows are binders tested against T6, APBA1_2, Q02410 (assay: holdup assay). Details: plain residues with an end cap or a label only (N-terminal biotin on a linker: ado-ado).
Design: key: below the threshold = too weak to quantify, mostly under pKd 3.1 to 4
With KAEEKPPSKV [SCN4B, Q8IWT1] the pKd was 3.85.
QKNKDREYYV [NRXN3, Q9HDB5] was tested, and the pKd was 3.99.

What follows are binders tested against IL16_1, Q14005 (assay: holdup assay). Details: plain residues with an end cap or a label only (N-terminal biotin on a linker: ado-ado).
IL16_1, Q14005, sequence (Q14005 210-306): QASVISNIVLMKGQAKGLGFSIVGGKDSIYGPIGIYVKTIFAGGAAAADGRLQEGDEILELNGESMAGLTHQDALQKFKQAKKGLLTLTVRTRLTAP
Design: key: below the threshold = too weak to quantify, mostly under pKd 3.1 to 4
With KAEEKPPSKV [SCN4B, Q8IWT1] the pKd was “below the threshold”.
In the case of QKNKDREYYV [NRXN3, Q9HDB5], the pKd is reported as 3.72.

These binders were tested against LIMK2, P53671 (assay: holdup assay). Details: plain residues with an end cap or a label only (N-terminal biotin on a linker: ado-ado).
LIMK2, P53671, sequence (P53671 143-248): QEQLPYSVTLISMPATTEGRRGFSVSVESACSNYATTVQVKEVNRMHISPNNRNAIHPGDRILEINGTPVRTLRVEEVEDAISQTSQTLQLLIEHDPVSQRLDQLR
Design: key: below the threshold = too weak to quantify, mostly under pKd 3.1 to 4
KAEEKPPSKV [SCN4B, Q8IWT1] was tested, and the pKd was “below the threshold”.
For QKNKDREYYV [NRXN3, Q9HDB5], the pKd was “below the threshold”.

These binders were tested against NHERF4_4, Q86UT5 (assay: holdup assay). Details: plain residues with an end cap or a label only (N-terminal biotin on a linker: ado-ado).
NHERF4_4, Q86UT5, sequence (Q86UT5 464-550): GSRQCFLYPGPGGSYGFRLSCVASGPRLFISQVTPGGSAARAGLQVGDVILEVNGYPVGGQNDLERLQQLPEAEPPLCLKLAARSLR
Design: key: below the threshold = too weak to quantify, mostly under pKd 3.1 to 4
In the case of KAEEKPPSKV [SCN4B, Q8IWT1], the pKd is reported as “below the threshold”.
In the case of QKNKDREYYV [NRXN3, Q9HDB5], the pKd is reported as “below the threshold”.

Each binder was assayed against DLG1_3, Q12959 (assay: holdup assay). Details: plain residues with an end cap or a label only (N-terminal biotin on a linker: ado-ado).
DLG1_3, Q12959, sequence (Q12959 457-571): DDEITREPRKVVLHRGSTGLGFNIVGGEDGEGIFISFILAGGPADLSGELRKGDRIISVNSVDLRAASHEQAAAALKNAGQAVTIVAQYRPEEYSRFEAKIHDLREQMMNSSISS
Design: key: below the threshold = too weak to quantify, mostly under pKd 3.1 to 4
In the case of KAEEKPPSKV [SCN4B, Q8IWT1], the pKd is reported as “below the threshold”.
With QKNKDREYYV [NRXN3, Q9HDB5] the pKd was “below the threshold”.

Each binder was assayed against T7, CARD11, Q9BXL7 (assay: holdup assay). Details: plain residues with an end cap or a label only (N-terminal biotin on a linker: ado-ado).
Design: key: below the threshold = too weak to quantify, mostly under pKd 3.1 to 4
For KAEEKPPSKV [SCN4B, Q8IWT1], the pKd was “below the threshold”.
QKNKDREYYV [NRXN3, Q9HDB5] was tested, and the pKd was “below the threshold”.

Each binder was assayed against DLG5_1, Q8TDM6 (assay: holdup assay). Details: plain residues with an end cap or a label only (N-terminal biotin on a linker: ado-ado).
DLG5_1, Q8TDM6, sequence (Q8TDM6 617-713): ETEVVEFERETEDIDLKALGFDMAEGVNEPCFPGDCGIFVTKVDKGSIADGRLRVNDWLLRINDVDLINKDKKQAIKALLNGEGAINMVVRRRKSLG
Design: key: below the threshold = too weak to quantify, mostly under pKd 3.1 to 4
With KAEEKPPSKV [SCN4B, Q8IWT1] the pKd was “below the threshold”.
For QKNKDREYYV [NRXN3, Q9HDB5], the pKd was “below the threshold”.

What follows are binders tested against PICK1, Q9NRD5 (assay: holdup assay). Details: plain residues with an end cap or a label only (N-terminal biotin on a linker: ado-ado).
PICK1, Q9NRD5, sequence (Q9NRD5 17-115): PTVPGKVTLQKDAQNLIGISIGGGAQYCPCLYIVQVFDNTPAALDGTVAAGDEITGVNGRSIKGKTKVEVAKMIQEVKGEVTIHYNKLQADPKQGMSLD
Design: key: below the threshold = too weak to quantify, mostly under pKd 3.1 to 4
For KAEEKPPSKV [SCN4B, Q8IWT1], the pKd was 4.21.
With QKNKDREYYV [NRXN3, Q9HDB5] the pKd was “below the threshold”.

What follows are binders tested against SCRIB_3, Q14160 (assay: holdup assay). Details: plain residues with an end cap or a label only (N-terminal biotin on a linker: ado-ado).
SCRIB_3, Q14160, sequence (Q14160 999-1103): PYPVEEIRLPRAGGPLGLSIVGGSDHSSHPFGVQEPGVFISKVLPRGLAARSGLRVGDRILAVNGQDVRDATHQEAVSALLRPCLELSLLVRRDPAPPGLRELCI
Design: key: below the threshold = too weak to quantify, mostly under pKd 3.1 to 4
With KAEEKPPSKV [SCN4B, Q8IWT1] the pKd was “below the threshold”.
For QKNKDREYYV [NRXN3, Q9HDB5], the pKd was “below the threshold”.

These binders were tested against GRASP, Q7Z6J2 (assay: holdup assay). Details: plain residues with an end cap or a label only (N-terminal biotin on a linker: ado-ado).
GRASP, Q7Z6J2, sequence (Q7Z6J2 96-193): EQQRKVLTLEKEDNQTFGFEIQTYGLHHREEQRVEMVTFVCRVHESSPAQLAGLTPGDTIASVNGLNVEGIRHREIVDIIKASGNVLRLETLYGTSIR
Design: key: below the threshold = too weak to quantify, mostly under pKd 3.1 to 4
In the case of KAEEKPPSKV [SCN4B, Q8IWT1], the pKd is reported as “below the threshold”.
With QKNKDREYYV [NRXN3, Q9HDB5] the pKd was “below the threshold”.

Each binder was assayed against GRIP2_6, Q9C0E4 (assay: holdup assay). Details: plain residues with an end cap or a label only (N-terminal biotin on a linker: ado-ado).
GRIP2_6, Q9C0E4, sequence (Q9C0E4 648-740): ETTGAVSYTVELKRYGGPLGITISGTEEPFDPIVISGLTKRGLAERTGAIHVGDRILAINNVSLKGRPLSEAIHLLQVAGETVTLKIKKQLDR
Design: key: below the threshold = too weak to quantify, mostly under pKd 3.1 to 4
With KAEEKPPSKV [SCN4B, Q8IWT1] the pKd was “below the threshold”.
In the case of QKNKDREYYV [NRXN3, Q9HDB5], the pKd is reported as 4.27.

Each binder was assayed against T8, LRRC7, Q96NW7 (assay: holdup assay). Details: plain residues with an end cap or a label only (N-terminal biotin on a linker: ado-ado).
Design: key: below the threshold = too weak to quantify, mostly under pKd 3.1 to 4
With KAEEKPPSKV [SCN4B, Q8IWT1] the pKd was “below the threshold”.
In the case of QKNKDREYYV [NRXN3, Q9HDB5], the pKd is reported as “below the threshold”.

What follows are binders tested against T9, PARD3B_1, Q8TEW8 (assay: holdup assay). Details: plain residues with an end cap or a label only (N-terminal biotin on a linker: ado-ado).
Design: key: below the threshold = too weak to quantify, mostly under pKd 3.1 to 4
For KAEEKPPSKV [SCN4B, Q8IWT1], the pKd was “below the threshold”.
For QKNKDREYYV [NRXN3, Q9HDB5], the pKd was 4.17.

These binders were tested against TJP1_3, Q07157 (assay: holdup assay). Details: plain residues with an end cap or a label only (N-terminal biotin on a linker: ado-ado).
TJP1_3, Q07157, sequence (Q07157 416-512): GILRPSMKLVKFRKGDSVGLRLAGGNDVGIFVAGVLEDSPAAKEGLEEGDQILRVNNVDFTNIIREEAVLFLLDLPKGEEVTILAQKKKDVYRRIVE
Design: key: below the threshold = too weak to quantify, mostly under pKd 3.1 to 4
In the case of KAEEKPPSKV [SCN4B, Q8IWT1], the pKd is reported as “below the threshold”.
With QKNKDREYYV [NRXN3, Q9HDB5] the pKd was “below the threshold”.

The binders below were run against LNX1_1, Q8TBB1 (assay: holdup assay). Details: plain residues with an end cap or a label only (N-terminal biotin on a linker: ado-ado).
LNX1_1, Q8TBB1, sequence (Q8TBB1 261-371): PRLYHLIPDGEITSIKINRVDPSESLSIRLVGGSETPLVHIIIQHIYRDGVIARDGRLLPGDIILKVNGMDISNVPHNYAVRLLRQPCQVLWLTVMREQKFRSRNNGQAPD
Design: key: below the threshold = too weak to quantify, mostly under pKd 3.1 to 4
Work on KAEEKPPSKV [SCN4B, Q8IWT1] yielded a pKd of 3.49.
QKNKDREYYV [NRXN3, Q9HDB5] showed a pKd of 3.65.
